Results from the supplement of paper PMC7877785.
± gives the uncertainty stated by the source.

Experiment: self-splicing fitness, log relative to wild type (ln ratio); higher = more splicing; Tetrahymena group I intron in knt gene, E. coli kanamycin selection, DiMSum; sequences stand for … in CUCUCU…GGAGGGAAAAGUUAUCAGGCAUGCACCUGGUAGCUAGUCUUUAAACCAAUAGAUUGCAUCGGUUUAAAAGGCAAGACCGUCAAAUUGCGGGAAAGGGGUCAACAGCCGUUCAGUACCAAGUCUCAGGGGAAACUUUGAGAUGGCCUUGCAAAGGGUAUGGUAAUAAGCUGACGGACAUGGUCCUAACCACGCAGCCAAGUCCUAAGUCAACAGAUCUUCUGUUGAUAUGGAUGCAGUUCACAGACUAAAUGUCGGUCGGGGAAGAUGUAUUCUUCUCAUAAGAUAUAGUCGGACCUCUCCUUAAUGGGAGCUAGCGGAUGAAGUGAUGCAACACUGGAGCCGCUGGGAACUAAUUUGUAUGCGAAAGUAUAUUGAUUAGUUUUGGAGUACUCGUGGUCG
In short: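 Fitness was computed with DiMSum as the error-weighted combination of replicate fold changes, kanamycin versus none, each normalised to wild type. The library randomised all eight intron nucleotides of the P1ex region, with the intron placed in the knt kanamycin-resistance gene on pET-22b(+) in E. coli BL21(DE3). Six replicate transformations were grown overnight at 37°C or 30°C on LB agar with or without 25 μg/mL kanamycin, plus 100 μg/mL carbenicillin, 50 μM IPTG and 0.2% rhamnose. Pooled colonies were amplicon-sequenced on an Illumina HiSeq 2500.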

| Sequence | self-splicing fitness (ln) (30 °C) | self-splicing fitness (ln) (37 °C) |
| --- | --- | --- |
| CCCAAGCAAUAUUACGGGUG | -3.36 ± 0.093 | -1.79 ± 0.077 |
| CCCAAGCAAUAUUACGGUGC | -3.6 ± 0.27 | -2.26 ± 0.22 |
| CCCAAGCAAUAUUACGGUGG | -3.69 ± 0.15 | -2.71 ± 0.15 |
| CCCAAGCAAUAUUACGUAAC | -3.6 ± 0.18 | -2.52 ± 0.21 |
| CCCAAGCAAUAUUACGUAGA | -3.94 ± 0.17 | -3.16 ± 0.18 |
| CCCAAGCAAUAUUACGUCAG | -4.12 ± 0.17 | -1.97 ± 0.13 |
| CCCAAGCAAUAUUACGUCAU | -2.95 ± 0.14 | -2.74 ± 0.13 |
| CCCAAGCAAUAUUACGUCCU | -3.99 ± 0.3 | -2.93 ± 0.29 |
| CCCAAGCAAUAUUACGUCGG | -3.63 ± 0.12 | -2.51 ± 0.14 |
| CCCAAGCAAUAUUACGUUAA | -3.68 ± 0.17 | -2.62 ± 0.14 |
| CCCAAGCAAUAUUACGUUAC | -4.13 ± 0.15 | -2.37 ± 0.13 |
| CCCAAGCAAUAUUACGUUGU | -3.3 ± 0.095 | -2.43 ± 0.11 |
| CCCCAGCAAUAUUACGAAAA | -3.6 ± 0.26 | -2.57 ± 0.26 |
| CCCCAGCAAUAUUACGAAGG | -4.06 ± 0.17 | -2.51 ± 0.15 |
| CCCCAGCAAUAUUACGAAUG | -4.11 ± 0.21 | -2.3 ± 0.15 |
| CCCCAGCAAUAUUACGACGU | -3.45 ± 0.21 | -2.9 ± 0.19 |
| CCCCAGCAAUAUUACGAUAC | -3.82 ± 0.27 | -2.85 ± 0.28 |
| CCCCAGCAAUAUUACGAUUU | -3.43 ± 0.14 | -3.51 ± 0.25 |
| CCCCAGCAAUAUUACGCAGG | -3.34 ± 0.12 | -2.52 ± 0.16 |
| CCCCAGCAAUAUUACGCCGA |  | -2.04 ± 0.25 |
| CCCCAGCAAUAUUACGCGAC | -3.37 ± 0.21 | -2.49 ± 0.25 |
| CCCCAGCAAUAUUACGCUGC | -3.41 ± 0.17 | -2.06 ± 0.23 |
| CCCCAGCAAUAUUACGCUUC | -4.6 ± 0.32 | -2.39 ± 0.27 |
| CCCCAGCAAUAUUACGGAAC | -3.83 ± 0.26 | -3.1 ± 0.22 |
| CCCCAGCAAUAUUACGGCUA | -3.77 ± 0.16 | -2.34 ± 0.13 |

| Sequence | self-splicing fitness (ln) (30 °C) | self-splicing fitness (ln) (37 °C) |
| --- | --- | --- |
| CCCCAGCAAUAUUACGGGAC | -3.88 ± 0.18 | -2.12 ± 0.14 |
| CCCCAGCAAUAUUACGGGCC | -3.27 ± 0.15 | -1.7 ± 0.15 |
| CCCCAGCAAUAUUACGGGUA | -2.89 ± 0.11 | -1.25 ± 0.073 |
| CCCCAGCAAUAUUACGGGUU | -3.63 ± 0.11 | -1.85 ± 0.092 |
| CCCCAGCAAUAUUACGGUCG | -2.24 ± 0.068 | -1.2 ± 0.078 |
| CCCCAGCAAUAUUACGGUCU | -3.81 ± 0.13 | -2.73 ± 0.17 |
| CCCCAGCAAUAUUACGUAUA | -4.57 ± 0.34 | -3.21 ± 0.28 |
| CCCCAGCAAUAUUACGUAUC | -3.88 ± 0.21 | -3.84 ± 0.21 |
| CCCCAGCAAUAUUACGUCAA | -3.29 ± 0.12 | -3 ± 0.16 |
| CCCCAGCAAUAUUACGUCCU | -2.36 ± 0.17 | -2.14 ± 0.22 |
| CCCCAGCAAUAUUACGUCUU | -3.9 ± 0.12 | -2.04 ± 0.12 |
| CCCCAGCAAUAUUACGUUAA | -3.33 ± 0.14 | -2.76 ± 0.13 |
| CCCCAGCAAUAUUACGUUAU | -4.15 ± 0.15 | -3.29 ± 0.22 |
| CCCCAGCAAUAUUACGUUUG | -4.17 ± 0.15 | -2.51 ± 0.12 |
| CCCGAGCAAUAUUACGAAAA | -2.67 ± 0.46 | -1.74 ± 0.42 |
| CCCGAGCAAUAUUACGACAA | -2.78 ± 0.3 | -2.85 ± 0.41 |
| CCCGAGCAAUAUUACGACUU | -3.24 ± 0.26 | -3.01 ± 0.25 |
| CCCGAGCAAUAUUACGCAAU | -3.57 ± 0.25 | -2.94 ± 0.29 |
| CCCGAGCAAUAUUACGCCAG | -2.69 ± 0.38 |  |
| CCCGAGCAAUAUUACGCGCC |  | -1.22 ± 0.35 |
| CCCGAGCAAUAUUACGCUUU |  | -1.35 ± 0.19 |
| CCCGAGCAAUAUUACGGACA | -2.72 ± 0.16 | -1.19 ± 0.12 |
| CCCGAGCAAUAUUACGGUAA | -3.81 ± 0.26 | -1.46 ± 0.16 |
| CCCGAGCAAUAUUACGUAAU | -4.75 ± 0.45 | -2.63 ± 0.32 |
| CCCGAGCAAUAUUACGUACA | -2.87 ± 0.19 | -2.25 ± 0.24 |

| Sequence | self-splicing fitness (ln) (30 °C) | self-splicing fitness (ln) (37 °C) |
| --- | --- | --- |
| CCCGAGCAAUAUUACGUCCG | -2.11 ± 0.4 | -1.98 ± 0.36 |
| CCCGAGCAAUAUUACGUCGU | -2.45 ± 0.12 | -3.06 ± 0.24 |
| CCCGAGCAAUAUUACGUUCA | -3 ± 0.16 | -2.99 ± 0.22 |
| CCCUAGCAAUAUUACGACAG | -2.34 ± 0.13 | -3.3 ± 0.29 |
| CCCUAGCAAUAUUACGACCA | -3.35 ± 0.24 | -3.33 ± 0.27 |
| CCCUAGCAAUAUUACGAGUU | -2.39 ± 0.14 | -3.11 ± 0.2 |
| CCCUAGCAAUAUUACGAUCG | -3.91 ± 0.35 | -1.47 ± 0.18 |
| CCCUAGCAAUAUUACGGACA | -2.94 ± 0.32 | -2.62 ± 0.24 |
| CCCUAGCAAUAUUACGGGCC | -3.25 ± 0.19 | -1.74 ± 0.27 |
| CCCUAGCAAUAUUACGGGCU | -4.04 ± 0.25 | -2.71 ± 0.18 |
| CCCUAGCAAUAUUACGGUCG | -2.02 ± 0.068 | -0.697 ± 0.092 |
| CCCUAGCAAUAUUACGUCAG | -3.8 ± 0.18 | -2.91 ± 0.18 |
| CCCUAGCAAUAUUACGUCGU | -3.42 ± 0.2 | -1.43 ± 0.19 |
| CCCUAGCAAUAUUACGUGAU | -2.33 ± 0.076 | -2.27 ± 0.14 |
| CCCUAGCAAUAUUACGUGCA | -3.99 ± 0.18 | -2.92 ± 0.14 |
| CCCUAGCAAUAUUACGUGCU | -2.99 ± 0.17 | -2.58 ± 0.24 |
| CCCUAGCAAUAUUACGUUCC | -2.3 ± 0.22 | -2.11 ± 0.24 |
| CCGAAGCAAUAUUACGAAGU | -3.15 ± 0.19 | -2.8 ± 0.29 |
| CCGAAGCAAUAUUACGACCU | -3.73 ± 0.32 | -2.3 ± 0.36 |
| CCGAAGCAAUAUUACGAGGG | -3 ± 0.18 | -1.73 ± 0.22 |
| CCGAAGCAAUAUUACGAUGU | -3.33 ± 0.27 | -1.86 ± 0.15 |
| CCGAAGCAAUAUUACGCGCG | -1.23 ± 0.11 | 0.0615 ± 0.12 |
| CCGAAGCAAUAUUACGGCAA | -3.61 ± 0.38 | -1.98 ± 0.38 |
| CCGAAGCAAUAUUACGGCAC | -4.15 ± 0.31 | -2.37 ± 0.33 |
| CCGAAGCAAUAUUACGGCGG | -3.48 ± 0.15 | -2.15 ± 0.17 |

| Sequence | self-splicing fitness (ln) (30 °C) | self-splicing fitness (ln) (37 °C) |
| --- | --- | --- |
| CCGAAGCAAUAUUACGGUCA | -3.56 ± 0.2 | -2.55 ± 0.18 |
| CCGAAGCAAUAUUACGUAUC | -2.92 ± 0.24 | -3.03 ± 0.25 |
| CCGAAGCAAUAUUACGUCGC | -3.18 ± 0.26 | -3.07 ± 0.34 |
| CCGAAGCAAUAUUACGUCGG | -3.35 ± 0.2 | -2.59 ± 0.31 |
| CCGAAGCAAUAUUACGUGAC |  | -1.4 ± 0.2 |
| CCGAAGCAAUAUUACGUGUU | -3.93 ± 0.16 | -2.89 ± 0.15 |
| CCGAAGCAAUAUUACGUUGU | -4.15 ± 0.32 | -3.37 ± 0.24 |
| CCGCAGCAAUAUUACGACAG | -0.485 ± 0.063 | 0.0928 ± 0.088 |
| CCGCAGCAAUAUUACGAGGU | -3.73 ± 0.2 | -1.84 ± 0.19 |
| CCGCAGCAAUAUUACGAUCC | -3.04 ± 0.19 | -2.71 ± 0.36 |
| CCGCAGCAAUAUUACGAUGA | -3.2 ± 0.38 |  |
| CCGCAGCAAUAUUACGAUGC | -4.08 ± 0.28 | -2.88 ± 0.23 |
| CCGCAGCAAUAUUACGAUGG | -4.91 ± 0.28 | -2.52 ± 0.2 |
| CCGCAGCAAUAUUACGCGCG | -3.21 ± 0.2 | -1.9 ± 0.17 |
| CCGCAGCAAUAUUACGCGUU | -3.51 ± 0.14 | -2.29 ± 0.14 |
| CCGCAGCAAUAUUACGCUAU | -3.78 ± 0.3 | -3.04 ± 0.25 |
| CCGCAGCAAUAUUACGCUCA |  | -1.28 ± 0.21 |
| CCGCAGCAAUAUUACGCUGA | -3.21 ± 0.34 |  |
| CCGCAGCAAUAUUACGGCCA | -4.11 ± 0.31 | -2.51 ± 0.26 |
| CCGCAGCAAUAUUACGGCGG | -4.17 ± 0.22 | -3.33 ± 0.26 |
| CCGCAGCAAUAUUACGGGCC | -2.9 ± 0.25 | -2.34 ± 0.29 |
| CCGCAGCAAUAUUACGGGGA | -3.59 ± 0.15 | -2.35 ± 0.15 |
